In publication PMC5348764, “Functional differentiation of 3-ketosteroid Δ^1-dehydrogenase isozymes in Rhodococcus ruber strain Chol-4” (Microbial Cell Factories, 2017):

Tests used:
KstD1 = target: T1, KstD1 (Rhodococcus ruber, UniProt I0B6J0); assay: DCPIP reduction at […] nm, cell-free extract, Michaelis-Menten fit; conditions: read-out: KstD1 / Km; 80 µM DCPIP as electron acceptor, 50 mM Tris pH 7, 30 °C
T1 sequence (I0B6J0 1-511): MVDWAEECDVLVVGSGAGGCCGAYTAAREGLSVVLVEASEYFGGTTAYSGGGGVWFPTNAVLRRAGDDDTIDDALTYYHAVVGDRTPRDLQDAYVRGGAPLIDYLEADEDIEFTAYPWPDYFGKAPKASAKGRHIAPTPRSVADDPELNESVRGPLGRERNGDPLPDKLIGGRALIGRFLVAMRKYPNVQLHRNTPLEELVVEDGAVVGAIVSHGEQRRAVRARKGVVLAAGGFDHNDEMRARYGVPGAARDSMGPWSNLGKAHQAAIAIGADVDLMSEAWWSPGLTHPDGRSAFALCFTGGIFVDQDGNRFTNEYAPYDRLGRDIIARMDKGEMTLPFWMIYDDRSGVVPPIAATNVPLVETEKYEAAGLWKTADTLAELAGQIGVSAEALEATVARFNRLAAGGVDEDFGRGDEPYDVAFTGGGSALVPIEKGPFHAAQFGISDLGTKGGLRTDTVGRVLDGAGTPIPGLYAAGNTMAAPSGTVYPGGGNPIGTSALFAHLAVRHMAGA

KstD2 = target: T2, KstD2 (Rhodococcus ruber, UniProt I0B6I6); assay: as above; conditions: read-out: KstD2 / Km; 80 µM DCPIP as electron acceptor, 50 mM Tris pH 7, 30 °C
T2 sequence (I0B6I6 1-564): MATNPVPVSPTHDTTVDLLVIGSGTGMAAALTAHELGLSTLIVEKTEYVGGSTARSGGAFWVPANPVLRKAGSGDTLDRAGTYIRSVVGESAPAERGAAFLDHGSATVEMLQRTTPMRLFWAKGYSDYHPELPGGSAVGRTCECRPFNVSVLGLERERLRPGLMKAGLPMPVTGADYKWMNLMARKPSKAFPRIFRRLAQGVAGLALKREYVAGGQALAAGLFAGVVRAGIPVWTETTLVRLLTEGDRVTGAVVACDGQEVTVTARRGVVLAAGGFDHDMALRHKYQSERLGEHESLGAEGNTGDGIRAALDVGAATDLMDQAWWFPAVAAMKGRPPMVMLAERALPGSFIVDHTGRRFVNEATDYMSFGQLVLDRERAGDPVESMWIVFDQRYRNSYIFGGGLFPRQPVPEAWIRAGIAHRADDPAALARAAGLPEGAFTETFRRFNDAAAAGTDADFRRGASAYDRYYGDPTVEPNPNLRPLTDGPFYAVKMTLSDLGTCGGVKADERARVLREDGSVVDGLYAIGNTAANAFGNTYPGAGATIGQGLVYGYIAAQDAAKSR

[1] = substrate: C[C@]12CCC(=O)C[C@@H]1CC[C@@H]1[C@@H]2CC[C@]2(C)[C@@H](O)CC[C@@H]12; assay: cells, lysate or membranes
[2] = substrate: C[C@]12C[C@H](O)[C@H]3[C@@H](CCC4=CC(=O)CC[C@@]43C)[C@@H]1CC[C@@H]2C(=O)CO; assay: cells, lysate or membranes; conditions: 80 µM DCPIP as electron acceptor, 50 mM Tris pH 7, 30 °C
[3] = substrate: C[C@H](C(=O)O)[C@H]1CC[C@H]2[C@@H]3CCC4=CC(=O)CC[C@]4(C)[C@H]3CC[C@]12C; assay: cells, lysate or membranes; conditions: 80 µM DCPIP as electron acceptor, 50 mM Tris pH 7, 30 °C
[4] = substrate: C[C@]12CCC(=O)C=C1CC[C@@H]1[C@@H]2CC[C@]2(C)C(=O)CC[C@@H]12; assay: cells, lysate or membranes; conditions: pH 7.0; 30.0 °C
[5] = substrate: C[C@]12CC[C@H]3[C@@H](CCC4=CC(=O)CC[C@@]43C)[C@@H]1CC[C@@H]2O; assay: cells, lysate or membranes; conditions: pH 7.0; 30.0 °C
[6] = substrate: CC(=O)[C@H]1CC[C@H]2[C@@H]3CCC4=CC(=O)CC[C@]4(C)[C@H]3CC[C@]12C; assay: cells, lysate or membranes; conditions: 80 µM DCPIP as electron acceptor, 50 mM Tris pH 7, 30 °C
[7] = substrate: C[C@]12CC[C@H]3[C@@H](CCC4=CC(=O)CC[C@@]43C)[C@@H]1CC[C@@H]2C(=O)CO; assay: cells, lysate or membranes; conditions: 80 µM DCPIP as electron acceptor, 50 mM Tris pH 7, 30 °C
[8] = substrate: [H][C@@]12CCC3=CC(=O)CC[C@]3(CO)[C@@]1([H])CC[C@]1(C)C(=O)CC[C@@]21[H]; assay: cells, lysate or membranes; conditions: pH 7.0; 30.0 °C

C[C@]12CCC(=O)C=C1CC[C@H]1[C@@H]3CCC(=O)[C@@]3(C)CC[C@@]12O [9OHAD, 9α-hydroxy-4-androstene-3,17-dione]
Km (KstD1): 22.1 ± 7 µM
Km (KstD2): 543 ± 77.8 µM

B1: KstD2 (Rhodococcus ruber) (protein)
chain: T2 sequence (I0B6I6 1-564)
Km ([1]; pH 7.0, 30.0 °C): 24.57 ± 7.8 µM
Km [2]: 374.3 ± 74.5 µM
Km [3]: 38.2 ± 6.6 µM
Km [4]: 40.1 ± 8.7 µM
Km [5]: 107.9 ± 18.5 µM
Km [6]: 33.8 ± 4.9 µM
Km [7]: 42.5 ± 5.8 µM
Km [8]: 347.4 ± 41.7 µM

B2: KstD1 (Rhodococcus ruber) (protein)
chain: T1 sequence (I0B6J0 1-511)
Km [2]: 161.6 ± 7.6 µM
Km [3]: 76.1 ± 15.7 µM
Km [4]: 34.2 ± 3.8 µM
Km [5]: 28.8 ± 7.4 µM
Km [6]: 27.9 ± 9.5 µM
Km [7]: 21.6 ± 4.5 µM
Km [8]: 368.8 ± 102.4 µM

B3: KstD3 (Rhodococcus ruber) (protein)
chain: MIKQEYDIVVVGSGAGGMTAALTAAHRGASVVLVEKAPHYGGSSARSGGGVWIPNNEVLGAAGVTDTPEAARTYLHSIIGDVVPAGKIDTYIDRGPEMLSFVLEHSALELQWVPGYSDYYPEAPGGRLGGRSVEPKPFDGKRLGDDLALLEPDYVKGPPNFVITQADYKWLNLLMRNPRGPVRAAKVGVRYLWARARRRHLLVRGQALMAGLRMGLRDAGVPLLLNTALTDLVVEDGVVRGVRVESDGQQRTVRARRGVVIASGGFEHNEQMRTQYQRAPIGTEWTVGAKANTGDGIRAGQSLGAAVDFMDDAWWGPSFPLTGGPWFALSERSLPGSMMVNAAGRRFVNESAPYVEAVHAMYGGRHGRGDGPGENIPCWMILDQRYRNRYTFAGITPRSPFPKRWLKAGVVVRAGSIAELAGKIGVPAAALTATVERFNGFARAGRDEDFGRGESGYDHYYGDPRNKPNPSLGVIDKAPFYAIKVVPGDLGTKGGLRTDADARVLREDGTVIEGLYAAGNASGPVMGHTYAGPGATIGPAMTFAYLAVLDALARPEQPAVPPVSETVEQH
Km ([1]; 80 µM DCPIP as electron acceptor, 50 mM Tris pH 7, 30 °C): 181.1 ± 42.6 µM
Km [6]: 43.6 ± 2.9 µM
Km [7]: 111.3 ± 4.0 µM
